In patent US7485460B2, “Enhanced growth of adult stem cells with Dkk-1” (Tulane University Health Sciences Center, priority 2003, dated 2009):

Assays:
MSCs (RS cells) = experiment: Binding of biotinylated Dkk-1 peptides to MSCs (streptavidin-biotin fluorescence microscopy); design: species or system human; conditions: for fluorescence of MSCs labeled with peptide: FIGS. 30A-30G correspond to peptides A-G; for binding to early progenitor cells (RS cells): biotin-labeled peptide, streptavidin Alexafluor 594
Text: FIG. 30, comprising FIGS. 30A-30H, is an image of a set of photomicrographs depicting solid phase binding assays to MSCs using biotinylated peptides. The labeled peptides in FIGS. 30A-30G correspond to peptides A-G in FIG. 29. FIG. 30H is a control.
The peptides were then labeled with biotin for use with a commercially available streptavidin-biotin detection system. The streptavidin was linked to a fluorescent tag (Alexafluor 594, Molecular Probes, Eugene, Oreg.) so as to be easily detected by fluorescence microscopy. MSCs were incubated with one of the peptides and the streptavidin-biotin detection system as indicated by the manufacturer's instructions. Then the MSCs were observed under a fluorescence microscope. All of these methods are well-known in the art and are easily found throughout the literature.

beta-catenin [1] = experiment: beta-catenin levels in hMSCs by western blotting; format: cell-based, human; conditions: stationary phase hMSCs, 0.1 micrograms per milliliter
Protocol: For immunoblotting, filters were blocked in PBS containing 0.1% (v/v) Tween 20 (Sigma, St. Louis, Mo.) for 1 hour. For detection of beta-catenin, blots were probed with an anti-beta-catenin monoclonal antibody at a dilution of 1 to 1000 (clone 5H10 Chemicon International; Temecula, Calif.) followed by an anti-mouse peroxidase-conjugated rabbit serum (Sigma Aldrich, St. Louis, Mo.). For detection of Dkk-1, blots were probed in 1 microgram per milliliter of anti Dkk-1 polyclonal antibody (see below) followed by an anti-rabbit peroxidase-conjugated monoclonal antibody (clone RG 96, Sigma Aldrich, St. Louis, Mo.). Positive bands were detected by chemiluminescence in accordance with a previously described procedure (Spees et al. Cell Stress Chaperones, 7:97-106 (2002)).
In further experiments, the effect of recombinant Dkk-1 on beta-catenin levels in hMSCs were investigated.

beta-catenin [2] = experiment: Cellular distribution of beta-catenin in hMSCs by immunostaining; format: cell-based, human; conditions: stationary phase hMSCs, 0.1 micrograms per milliliter
Protocol: hMSCs in tissue culture dishes were fixed with 4% (v/v) Paraformaldehyde (USB Corporation, Cleveland, Ohio) for 10 minutes at 4° C. and washed with PBS (Fisher Lifesciences, Pittsburgh, Pa.). Sections (30 millimeter×60 millimeter) of the dishes containing the adherent cells were excised using a hot scalpel under constant hydration with PBS. The samples were blocked in PBS containing 0.4% (v/v) Triton X-100 (Sigma Aldrich, St. Louis, Mo.) and 5% (v/v) goat serum (Sigma Aldrich). Anti-beta-catenin (described above) was added in a 1:400 dilution to the slides in block solution. An appropriate concentration of mouse IgG1 (Cymbus Biotechnology Chandlers Ford, Hants, UK) was used as an isotype control. The samples were incubated for 16 hours at 4° C. followed by washing in PBS. The samples were then incubated for 1 hour in a 1:800 dilution of Alexa-Fluor 594-congugated secondary antibody (Molecular Probes, Eugene, Oreg.). Isotype controls were acquired from Chemicon and Becton Dickinson Slides were washed and mounted with medium containing DAPI (Vector Laboratories Incorporated; Burlingame, Calif.). Immunofluorescence microscopy and digital imaging was carried out using an upright fluorescent microscope (Eclipse 800, Nikon, Japan). […]

hMSCs [3] = experiment: Effect of recombinant Dkk-1 on hMSC proliferation (fluorescence assay for nucleic acids); format: cell-based, human
Protocol: For assay of proliferation, cells were also quantified by fluorescent labeling of nucleic acids (CyQuant dye; Molecular Probes Incorporated; Eugene, Oreg.). hMSCs were plated at 100 cells per cm^2 into 10 cm^2 wells and allowed to grow for 4 days. The cells were washed with PBS and medium was added containing the appropriate concentration of Dkk-1 and FCS. The cells were recovered by trypsinization as described above. Fluorescence analysis was carried out using a microplate fluorescence reader (FLx800; Bio-Tek Instruments Incorporated; Winooski, Vt.) set to 480 nanometers excitation and 520 nanometers emission.
To test the hypothesis that Dkk-1 increased proliferation of hMSCs, its effects on rate of growth were assayed. The hMSCs were plated at a density of 100 cells per cm^2 in 6 well plates (10 per cm^2 per well). After 4 days, when the cells were in early log phase of growth, the conditioned medium was removed and replaced with fresh medium containing either vehicle, 0.1 micrograms per milliliter Dkk-1 or 0.01 micrograms per milliliter Dkk-1.

hMSCs [4] = experiment: Colony-forming potential of hMSCs with recombinant Dkk-1 (crystal violet); format: cell-based, human
Protocol: MSCs were plated at about 0.6 cells per cm^2 and incubated in complete medium for 17 days. For direct visualization of colonies, a 5% (w/v) solution of crystal violet in methanol (Sigma Aldrich, St. Louis, Mo.) was added to tissue culture dishes previously washed twice with PBS. After 20 minutes, the plates were washed with distilled water and air-dried. Stained colonies with diameters 2 millimeters or greater were counted.
To test the effect of recombinant Dkk-1 on the colony-forming potential of hMSCs, 100 hMSCs were plated onto a 176 cm2 tissue culture dish and allowed to form colonies in the absence or presence of Dkk-1 in medium supplemented with 10% (v/v) fetal calf serum instead of the optimal concentration of 20%.

[5] = 100 hMSCs per 176 cm2 dish, 10% FCS, 2.5 weeks

sTKHRRKGSHGLEIFQRCYs (STKHRRKGSHGLEIFQRCYS; Peptide synthesized from Dkk-1 LRP-6 binding domain) [Peptide E]
fluorescence of MSCs labeled with peptide (MSCs (RS cells)): highly fluorescent | binding to early progenitor cells (RS cells) (MSCs (RS cells)): tightly bound

LSSKMYHTKGQEGSVCLRSS (Peptide synthesized from Dkk-1 LRP-6 binding domain) [Peptide B]
fluorescence of MSCs labeled with peptide (MSCs (RS cells)): highly fluorescent | binding to early progenitor cells (RS cells) (MSCs (RS cells)): tightly bound

B1: recombinant Dkk-1: Histidine-tagged recombinant human Dkk-1 expressed in E. coli, refolded from inclusion bodies; inhibitor of Wnt signaling (protein)
chain: TLNSVLNSNAIKNLPPPLGGAAGHPGSAVSAAPGILYPGGNKYQTIDNYQPYPCAEDEECGTDEYCASPTRGGDAGVQICLACRKRRKRCMRHAMCCPGNYCKNGICVSSDQNHFRGEIEETITESFGNDHSTLDGYSRRTTLSSKMYHTKGQEGSVCLRSSDCASGLCCARHFWSKICKPVLKEGQVCTKHRRKGSHGLEIFQRCYCGEGLSCRIQKDHHQASNSSRLHTCQRH
beta-catenin levels (beta-catenin [1]): reduced the levels of beta-catenin | cellular distribution of beta-catenin (beta-catenin [2]): clearance of the cytoplasmic pool of beta-catenin | duration of effect on proliferation (hMSCs [3]; 0.1 micrograms per milliliter): 30 h | rate of proliferation at high concentration (hMSCs [3]; 0.5 micrograms per milliliter): failed to increase the rate of proliferation | effect on proliferation as cells approached stationary phase (hMSCs [3]; cells approaching stationary phase of growth): no significant effect | effect on lag phase and proliferation (hMSCs [3]; early log phase hMSCs, fresh medium with 0.1 or 0.01 micrograms per milliliter Dkk-1): reduced the lag phase and initially increased proliferation | duration of significant effect on proliferation (hMSCs [3]; tenfold less Dkk-1 (0.01 micrograms per milliliter)): about 15 hours | colony size and number at high concentration (hMSCs [4]; 0.5 micrograms per milliliter): reduced both the colony size and number | colony number (hMSCs [4]; [5]): no significant effect | colony size (hMSCs [4]; [5]): increased colony size
